From US20210238294A1 (JIANGSU HENGRUI MEDICINE, published 2021)
Where two headings read alike, the source gives them in different places.

What was measured:
Test in all cases: cell-based or functional assay
[1] = target: T1, human IL-4R on cells (HEK-Blue IL-4 cells, TF-1 cells) (human, UniProt P24394 26-825)
[2] = target: T1, human IL-4R on cells (HEK-Blue IL-4 …); remark: listed apart in the source
[3] = target: T1, human IL-4R on cells (HEK-Blue IL-4 …); remark: listed apart in the source
[4] = target: T1, human IL-4R on cells (HEK-Blue IL-4 …); remark: listed apart in the source

Row | Binder | Inhibiting the proliferation of TF-1 cells by IL-4 (IC50) [1] | blocking of the binding of HEK293-Blue IL-4 cell (to IL-4) (IC50) [1] | Inhibiting the proliferation of TF-1 cells by IL-4 (IC50) [2] | blocking the binding of HEK293-Blue IL-4 cell (to IL-4) (IC50) [2] | Inhibiting the proliferation of TF-1 cell by IL-13 (IC50) [3] | Inhibiting the proliferation of TF-1 cells by IL-4 (IC50) [3] | blocking the binding of HEK293-Blue cells (with IL-4) (IC50) [3] | blocking the binding of HEK293-Blue cells (with IL-13) (IC50) [3] | Inhibiting the proliferation of TF-1 cell by IL-4 (IC50) [4] | blocking the binding of HEK293-Blue IL-4 cell (to IL-4) (IC50) [4]
1 | murine monoclonal antibody 25G7 (antibody, V domains shown) VH: EVQLVESGGGLVKPGGSLKLSCAASGFTFSDYGMHWVRQAPEKGLEWVAFISSGSSIIYYADIVKGRSTISRDNAKNTLFLQMTSLRSEDTAMYYCTRGNKRGFFDYWGQGTILTVSS VL: QIVLTQSPALMSASPGEKVTMTCNASSSVSYMYWYQRKPRSSPKPWIYLTSNLASGVPVRFSGSGSGTSYSLTISSMEAEDAATYYCQQWRSNPPMLTFGSGTKLEVK | 0.0513 µg/mL | 0.000975 µg/mL |  |  |  |  |  |  |  | 
2 | human-mouse chimeric antibody 7B10-C (antibody, V domains shown) VH: QVQLQQPGTELLKPGASVSLSCKASGYTFTSYWMHWVKQRPGQGLEWIGLIHPNSDTTKFSENFKTRATLTIDKSSSTAYMKLSSLTSEDSAVYYCAKSKIITTIVARHWYFDVWGTGTTVTVSS VL: DIVLTQSPPSLAVSLGQRATISCKASQSVDYGGDSYMNWYQQKLGQPPKVLIYAASNLESGIPARFSGSGSGTDFTLNIHPVEEEDVATYYCQHSNENPPTFGGGTKLEIK |  |  | 0.0464 µg/mL | 0.00903 µg/mL |  |  |  |  |  | 
3 | Dupilumab (antibody, V domains shown) VH: EVQLVESGGGLEQPGGSLRLSCAGSGFTFRDYAMTWVRQAPGKGLEWVSSISGSGGNTYYADSVKGRFTISRDNSKNTLYLQMNSLRAEDTAVYYCAKDRLSITIRPRYYGLDVWGQGTTVTVSS VL: DIVMTQSPLSLPVTPGEPASISCRSSQSLLYSIGYNYLDWYLQKSGQSPQLLIYLGSNRASGVPDRFSGSGSGTDFTLKISRVEAEDVGFYYCMQALQTPYTFGQGTKLEIKR | 0.102 µg/mL | 0.00507 µg/mL | 0.207 µg/mL | 0.00324 µg/mL | 0.0181 µg/mL | 0.101 µg/mL | 0.0125 µg/mL | 0.0148 µg/mL | 0.491 µg/mL | 0.000667 µg/mL
4 | affinity-matured humanized antibody hu25G7-A (antibody, human IgG4 S228P, kappa, V domains shown) VH: EVQLVESGGGLVQPGGSLRLSCAASGFTFSDYGMHWVRQAPGKGLEWVAFISSGSSIIYYADIVKGRSTISRDNAKNTLYLQMNSLRAEDTAVYYCTRGNKRGFFDYWGQGTLVTVSS VL: EIVLTQSPATLSLSPGERATLSCRASSSVPYMYWYQQKPGQAPRLLIYLTSNLASGIPARFSGSGSGTDFTLTISSLEPEDFAVYYCQQWRAYPPMLTFGGGTKVEIKR |  |  |  |  | 0.0132 µg/mL | 0.0837 µg/mL | 0.00649 µg/mL | 0.01 µg/mL |  | 
5 | affinity-matured humanized antibody hu25G7-B (antibody, human IgG4 S228P, kappa, V domains shown) VH: EVQLVESGGGLVQPGGSLRLSCAASGFTFSDYGMHWVRQAPGKGLEWVAFISSGSSIIYYADIVKGRSTISRDNAKNTLYLQMNSLRAEDTAVYYCTRGNKRGFFDYWGQGTLVTVSS VL: EIVLTQSPATLSLSPGERATLSCRASPGVPPLAWYQQKPGQAPRLLIYLASSRPSGIPARFSGSGSGTDFTLTISSLEPEDFAVYYCQQWRSNPPMLTFGGGTKVEIKR |  |  |  |  | 0.0137 µg/mL | 0.051 µg/mL | 0.0066 µg/mL | 0.00838 µg/mL |  | 
6 | humanized antibody hu25G7 (with VH-c heavy chain and VL-a light chain) (antibody, human IgG4 S228P, kappa, V domains shown) VH: EVQLVESGGGLVQPGGSLRLSCAASGFTFSDYGMHWVRQAPGKGLEWVAFISSGSSIIYYADIVKGRSTISRDNAKNSLYLQMNSLRAEDTAVYYCTRGNKRGFFDYWGQGTLVTVSS VL: EIVLTQSPATLSLSPGERATLSCNASSSVSYMYWYQQKPGQAPRLLIYLTSNLASGIPARFSGSGSGTDFTLTISSLEPEDFAVYYCQQWRSNPPMLTFGGGTKVEIKR |  |  |  |  |  |  |  |  | 0.0296 µg/mL | 0.000943 µg/mL
7 | humanized antibody hu7B10 (with VH-b heavy chain and VL-b light chain) (antibody, human IgG1, kappa, V domains shown) VH: EVQLVQSGAEVKKPGASVKVSCKASGYTFTSYWMHWVRQAPGQGLEWMGLIHPNSDTTKFSENFKTRVTMTIDTSISTAYMELSRLRSDDTAVYYCAKSKIITTIVARHWYFDVWGQGTTVTVSS VL: DIVLTQTPLSLSVTPGQPASISCKASQSVDYGGDSYMNWYLQKPGQPPQLLIYAASNLESGVPDRFSGSGSGTDFTLKISRVEAEDVGVYYCQHSNENPPTFGGGTKVEIKR |  |  |  |  |  |  |  |  | 0.112 µg/mL | 0.00687 µg/mL
8 | mouse monoclonal antibody 7B10 (antibody, V domains shown) VH: QVQLQQPGTELLKPGASVSLSCKASGYTFTSYWMHWVKQRPGQGLEWIGLIHPNSDTTKFSENFKTRATLTIDKSSSTAYMKLSSLTSEDSAVYYCAKSKIITTIVARHWYFDVWGTGTTVTVSS VL: DIVLTQSPPSLAVSLGQRATISCKASQSVDYGGDSYMNWYQQKLGQPPKVLIYAASNLESGIPARFSGSGSGTDFTLNIHPVEEEDVATYYCQHSNENPPTFGGGTKLEIK | 0.418 µg/mL | 0.0798 µg/mL |  |  |  |  |  |  |  | 
9 | human-mouse chimeric antibody 25G7-C (antibody, V domains shown) VH: EVQLVESGGGLVKPGGSLKLSCAASGFTFSDYGMHWVRQAPEKGLEWVAFISSGSSIIYYADIVKGRSTISRDNAKNTLFLQMTSLRSEDTAMYYCTRGNKRGFFDYWGQGTILTVSS VL: QIVLTQSPALMSASPGEKVTMTCNASSSVSYMYWYQRKPRSSPKPWIYLTSNLASGVPVRFSGSGSGTSYSLTISSMEAEDAATYYCQQWRSNPPMLTFGSGTKLEVK |  |  | 0.0203 µg/mL | 0.00202 µg/mL |  |  |  |  |  | 
